From patent US20250297019A1

Molecular target: human CCR8 (human) (UniProt P51685)
Assay: cell-based or functional assay

B1: murine anti-human CCR8 mAb 433H (BD Biosciences) (antibody, from another filing, mouse IgG2a, V domains shown)
VH: EVQLVETGGGLVQPKGSLRLSCAASGFPFNTFAMNWVRQAPGKGLEWLARIRSKSNNYATYYADSVKDRFTISRDDSRRMLYLLMNNVKFEDTAIYYCVRGKENNYGYAMDYWGQGTSVTVSS
VL: DIVMTQAAPSVPVTPGESVSISCRSSQSLLHSNGNTYLYWFLQRPGQSPQLLIYRMSNLASGVPDRFSGSGSGTAFTLRISRVEAEDVGVYYCMQHLEYPFTFGIGTKLELKR
In the case of B1, the IC50 of CCL1 blocking (Ca2+ influx, CHO/hCCR8.Gna15 cells) is reported as 0.0176 µM, the induction fold at plateau (about 40 nM antibody), mFcgRIV Jurkat reporter with CHO/hCCR8 is reported as 13 fold and the induction fold, mFcgRIV Jurkat NFAT-luciferase reporter with CHO/hCCR8, at about 1 nM antibody is reported as > 12 fold.
